Test results reported in the supplement of paper PMC12042874.
± gives the uncertainty stated by the source.

experiment: amyloid nucleation score (Sup35N fusion, yeast selection) (log enrichment); library NNK1; higher = more nucleation; inactive = no reads after selection
How it was run: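 In psi-negative yeast, Sup35N fusions carrying peptides of 20 random codons were induced with 100 μM copper sulfate for 24 hours. The cells then grew 7 days at 30°C on medium lacking adenine and uracil, and plasmid inserts from input and output were Illumina-sequenced, excluding sequences with under 100 input reads. Nucleation score is the DiMSum log enrichment of output over input reads, centred on the mode score of non-aggregating sequences.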

Question: Which amyloid nucleation score does the source give for WVCRSISPLVRTSLPRYWRN here?
Answer: inactive

Question: With WVCSNNMHMSIANVGLDCNL as the substance, how does the amyloid nucleation score read?
Answer: 0.178 ± 0.33

Question: With WVKCLPGGLQAFWYS as the substance, how does the amyloid nucleation score read?
Answer: -0.369 ± 1

Question: For WVLVIVLLRRWHHRDGAGQS, which amyloid nucleation score is on record?
Answer: 0.57 ± 0.47

Question: With WVLVSVH as the substance, how does the amyloid nucleation score read?
Answer: 0.211 ± 0.24

Question: With WVQNHKRQAPRDVLLSSYPD as the substance, how does the amyloid nucleation score read?
Answer: inactive

Question: Which amyloid nucleation score does the source give for WVSNCIFDAGLWRSYYRMGI here?
Answer: 0.74 ± 0.34

Question: Which amyloid nucleation score does the source give for WVTQVDWSGRR here?
Answer: -0.348 ± 0.77

Question: For WVWSLWYSRDGVKVFFDRQS, which amyloid nucleation score is on record?
Answer: -0.39 ± 0.34

Question: Which amyloid nucleation score does the source give for WWGRGVLVWYGCRAKVWTS here?
Answer: 0.012 ± 1.6

Question: For WWSRTLSLLE, which amyloid nucleation score is on record?
Answer: -0.035 ± 0.32

Question: Which amyloid nucleation score does the source give for WWVYRARFNCCHLYKVYLHC here?
Answer: 0.221 ± 0.88

Question: For WWYQCHCSYYHAIGITSVQE, which amyloid nucleation score is on record?
Answer: 1.39 ± 0.63

Question: For WYCPATH, which amyloid nucleation score is on record?
Answer: 0.836 ± 0.97

Question: With WYPMYQNTYRAEERVT as the substance, how does the amyloid nucleation score read?
Answer: 0.42 ± 0.64

Question: For WYPYTVSIPLIYVVSCIDEY, which amyloid nucleation score is on record?
Answer: 5.91 ± 0.07

Question: Which amyloid nucleation score does the source give for WYSTFGAMKKLGTYPCSGVN here?
Answer: -0.46 ± 1

Question: Which amyloid nucleation score does the source give for YAALVHTHLKDYEISIYVIN here?
Answer: 0.988 ± 0.43

Question: Which amyloid nucleation score does the source give for YADRFRASASPNMCDRCSLW here?
Answer: 4.01 ± 0.098

Question: With YALCKLSA as the substance, how does the amyloid nucleation score read?
Answer: 0.851 ± 0.79

Question: For YANCL, which amyloid nucleation score is on record?
Answer: 0.517 ± 0.44

Question: For YAPLLLSWAYFGV, which amyloid nucleation score is on record?
Answer: 1.31 ± 0.25

Question: With YCANQRNSVPMGRMEPHSSS as the substance, how does the amyloid nucleation score read?
Answer: -0.2 ± 0.49

Question: Which amyloid nucleation score does the source give for YCCGDTPTFCSLKFIMS here?
Answer: 7.059 ± 0.047

Question: With YCCYLMCYSRRILDGP as the substance, how does the amyloid nucleation score read?
Answer: 0.174 ± 0.43

Question: For YCEYILGFCFEMYAFGNRSP, which amyloid nucleation score is on record?
Answer: 0.573 ± 0.62

Question: With YCNLIRFKFCVNSCCMSSSL as the substance, how does the amyloid nucleation score read?
Answer: 5.64 ± 0.078

Question: Which amyloid nucleation score does the source give for YCPSC here?
Answer: 0.859 ± 0.42

Question: With YCRFWVDFFVFESILDSPPN as the substance, how does the amyloid nucleation score read?
Answer: 0.093 ± 0.32

Question: For YCWRVSHLGNGRYRLSLSFG, which amyloid nucleation score is on record?
Answer: inactive

Question: Which amyloid nucleation score does the source give for YDEGWANT here?
Answer: 0.048 ± 1.5

Question: With YDMIWSSMLGFIERQAYMLP as the substance, how does the amyloid nucleation score read?
Answer: -0.502 ± 0.32

Question: For YDPPTWIHNAMGG, which amyloid nucleation score is on record?
Answer: 0.342 ± 0.41

Question: With YDPRIGLVSVGNVRNNSV as the substance, how does the amyloid nucleation score read?
Answer: -1.48 ± 1.4

Question: For YDRMRTSIVRACERNLSDMH, which amyloid nucleation score is on record?
Answer: 0.786 ± 0.35

Question: For YDRVYLNQFVRTESVHFFCL, which amyloid nucleation score is on record?
Answer: 6.341 ± 0.056

Question: With YDSRCMAVSFSGSLFSHLLE as the substance, how does the amyloid nucleation score read?
Answer: -0.317 ± 0.45

Question: Which amyloid nucleation score does the source give for YDTFSPRSWS here?
Answer: 2.02 ± 0.62

Question: With YDTLMMNNLEMSTFVRMGLW as the substance, how does the amyloid nucleation score read?
Answer: 0.503 ± 0.51

Question: With YECKVYKSK as the substance, how does the amyloid nucleation score read?
Answer: 0.466 ± 0.47

Question: Which amyloid nucleation score does the source give for YEGGM here?
Answer: -0.334 ± 0.73

Question: For YELAMECYVSWVLLYVA, which amyloid nucleation score is on record?
Answer: 0.362 ± 0.32

Question: For YEPEGIQSIWRCSAVRHAKA, which amyloid nucleation score is on record?
Answer: -0.286 ± 1.9

Question: Which amyloid nucleation score does the source give for YFAEDSCERFAPDWVRLSTR here?
Answer: -0.425 ± 1.3

Question: For YFASCRTM, which amyloid nucleation score is on record?
Answer: -0.193 ± 0.27

Question: For YFCCALSNLLFRKSKHDRVR, which amyloid nucleation score is on record?
Answer: 6.872 ± 0.068

Question: For YFDWTRVGYNYGSILLPVEA, which amyloid nucleation score is on record?
Answer: 0.135 ± 0.51

Question: Which amyloid nucleation score does the source give for YFFGLILY here?
Answer: -0.332 ± 0.56

Question: With YFFRKLSGSWASSFLVAPMV as the substance, how does the amyloid nucleation score read?
Answer: 0.444 ± 0.59

Question: Which amyloid nucleation score does the source give for YFKNTGEVRSIRLSGHHGWG here?
Answer: 0.048 ± 0.86

Question: With YFNVSWID as the substance, how does the amyloid nucleation score read?
Answer: 1.02 ± 0.38

Question: Which amyloid nucleation score does the source give for YFSGLKDFILISNQNGSS here?
Answer: 2.66 ± 0.2

Question: With YFSVYSRHRSIWTCGIVYSK as the substance, how does the amyloid nucleation score read?
Answer: 0.078 ± 0.49

Question: Which amyloid nucleation score does the source give for YGCDGDVFRLIVWDVIAPSE here?
Answer: 0.044 ± 0.34

Question: With YGCSVYTVCMF as the substance, how does the amyloid nucleation score read?
Answer: 8.243 ± 0.071

Question: Which amyloid nucleation score does the source give for YGETGVINWRV here?
Answer: -0.217 ± 0.44

Question: Which amyloid nucleation score does the source give for YGFKSRDKPFNL here?
Answer: 0.008 ± 0.44

Question: For YGINMWRYLGNQEEATIVFL, which amyloid nucleation score is on record?
Answer: 0.244 ± 0.3

Question: For YGQMVIFGPVMLMAVLTW, which amyloid nucleation score is on record?
Answer: 3.33 ± 0.093

Question: With YGTNKISVALWS as the substance, how does the amyloid nucleation score read?
Answer: -0.054 ± 0.79

Question: For YGYLTITPVQVYIQRTSTWT, which amyloid nucleation score is on record?
Answer: 4.16 ± 0.12

Question: Which amyloid nucleation score does the source give for YGYMGGCHFPLYLMRIDSRD here?
Answer: 0.564 ± 0.75

Question: With YGYRSRSLSFCLD as the substance, how does the amyloid nucleation score read?
Answer: inactive

Question: Which amyloid nucleation score does the source give for YHFTSFSNVHHLAHRVGNSF here?
Answer: -0.333 ± 1.4

Question: For YHKTYIRYWAIVFDMMVRFG, which amyloid nucleation score is on record?
Answer: 0.372 ± 1.4

Question: For YHVRLV, which amyloid nucleation score is on record?
Answer: 0.147 ± 0.34

Question: For YIASMVCDIRKPHPCLVYVL, which amyloid nucleation score is on record?
Answer: 0.149 ± 0.42

Question: Which amyloid nucleation score does the source give for YICEFMIRTMKQPWPSKGEG here?
Answer: 0.542 ± 0.32

Question: For YIFWLYWRQSSSNCLGDVKW, which amyloid nucleation score is on record?
Answer: -0.46 ± 0.46

Question: Which amyloid nucleation score does the source give for YILWHEIFQDCLTRDIIRLM here?
Answer: 0.248 ± 0.54

Question: With YIRIMLGMMPNLRERSRTRV as the substance, how does the amyloid nucleation score read?
Answer: inactive

Question: For YIVGPIGVFSY, which amyloid nucleation score is on record?
Answer: 2.25 ± 0.55

Question: For YKEFVLYILYRLGLMIRKA, which amyloid nucleation score is on record?
Answer: inactive

Question: For YKESPYNYTWGTVLVGCMVI, which amyloid nucleation score is on record?
Answer: -0.702 ± 1.1

Question: Which amyloid nucleation score does the source give for YKFCVILSNGRQCVMALVRP here?
Answer: 0.286 ± 1.2

Question: With YKFYVTTLGFYDWCPFPVER as the substance, how does the amyloid nucleation score read?
Answer: 0.831 ± 0.42

Question: With YKNFKFSDDTRMFVNNVSVY as the substance, how does the amyloid nucleation score read?
Answer: 1.25 ± 0.56

Question: For YKNIPFTYGSFVLASYMSRK, which amyloid nucleation score is on record?
Answer: 0.368 ± 0.63

Question: With YKSIWTRLGSGRSRVGLSRL as the substance, how does the amyloid nucleation score read?
Answer: -0.38 ± 1

Question: Which amyloid nucleation score does the source give for YLCGHLMNTLYAILNVRRAL here?
Answer: 0.888 ± 0.9

Question: Which amyloid nucleation score does the source give for YLDGVECTN here?
Answer: -0.366 ± 0.63

Question: With YLDGVIWFLK as the substance, how does the amyloid nucleation score read?
Answer: -0.591 ± 0.31

Question: For YLFKSISCNSGRTRNQPKGQ, which amyloid nucleation score is on record?
Answer: -0.195 ± 1.4

Question: Which amyloid nucleation score does the source give for YLILYPRASFKYAIILWSCF here?
Answer: -0.749 ± 0.42

Question: For YLIVVLCRRCLMGSGYNRIG, which amyloid nucleation score is on record?
Answer: -0.368 ± 0.97

Question: Which amyloid nucleation score does the source give for YLLRVCAAMMFSKLCNG here?
Answer: 6.028 ± 0.049
